Data on four molecules can be found in patent US20210388105A1 (ELPISCIENCE SUZHOU BIOPHARMA, published 2021).

Experiment [1] deals with T1, human CD39 (full length, on cells) (human, UniProt P49961 1-510).
T1 construct: Recombinant on CHOK1-hCD39 cells or natural on SK-MEL-28, SK-MEL-5 and MOLP-8 cells; the cell line is named under assay; also called hCD39; ENTPD1
T1 sequence: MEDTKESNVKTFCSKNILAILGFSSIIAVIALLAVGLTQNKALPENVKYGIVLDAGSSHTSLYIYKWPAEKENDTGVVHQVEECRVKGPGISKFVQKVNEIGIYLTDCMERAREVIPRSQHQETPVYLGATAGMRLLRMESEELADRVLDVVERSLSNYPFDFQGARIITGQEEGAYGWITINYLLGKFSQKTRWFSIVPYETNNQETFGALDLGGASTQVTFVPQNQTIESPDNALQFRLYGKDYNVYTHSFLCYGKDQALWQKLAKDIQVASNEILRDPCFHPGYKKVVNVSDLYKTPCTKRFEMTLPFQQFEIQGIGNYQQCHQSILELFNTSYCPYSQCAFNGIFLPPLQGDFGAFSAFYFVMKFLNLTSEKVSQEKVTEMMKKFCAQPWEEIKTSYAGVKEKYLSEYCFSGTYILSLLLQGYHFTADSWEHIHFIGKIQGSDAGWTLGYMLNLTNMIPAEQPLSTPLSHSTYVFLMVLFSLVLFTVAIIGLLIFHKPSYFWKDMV
In words: FACS, SK-MEL-28 cells. As to the method: (§1) Similarly, human CD39 expressing cells SK-MEL-5, SK-MEL-28 or MOLP-8, were incubated with a gradient concentration of anti-CD39 antibodies for 30 minutes at 4° C. Cells were washed 3 times using FACS buffer and next incubated with fluorescence labelled secondary antibody (goat-anti-mouse IgG or goat anti-human IgG) for 30 minutes at 4° C. Cells were washed 3 times and then re-suspended in FACS buffer and analyzed by flow cytometry analysis on BD Celesta. Data plotted and analyzed using GraphPad Prism 8.02.
(§2) Binding affinity of the humanized antibodies hu23.H5L5 and hu14.H1L1 were tested on different cells by FACS following the similar method as described in Example 3.2.
(§3) Reference antibodies T895 and 1394 were tested in parallel as control antibodies. As shown in FIG. 12 and summarized in Table 23, both antibodies hu23.H5L5 and hu14.H1L1 bound to human and cynomolgus CD39 expressing cells in a dose-dependent manner and with similar affinity by EC₅₀ at a sub-nanomolar or nanomolar level. Neither of them recognized mouse CD39 in the FACS study. Maximum signal (mean fluorescence intensity, MFI) differed between cells for each antibody may result from their different expression level.
A general note: In flow cytometry, cells or beads pass a laser one at a time.

The target in experiment [2] is T2, cynomolgus CD39 (full length, on CHOK1-cynoCD39 cells) (cynomolgus monkey, UniProt A0A7N9DGH8 1-510).
T2 construct: whole, on cells; also called cCD39
T2 sequence: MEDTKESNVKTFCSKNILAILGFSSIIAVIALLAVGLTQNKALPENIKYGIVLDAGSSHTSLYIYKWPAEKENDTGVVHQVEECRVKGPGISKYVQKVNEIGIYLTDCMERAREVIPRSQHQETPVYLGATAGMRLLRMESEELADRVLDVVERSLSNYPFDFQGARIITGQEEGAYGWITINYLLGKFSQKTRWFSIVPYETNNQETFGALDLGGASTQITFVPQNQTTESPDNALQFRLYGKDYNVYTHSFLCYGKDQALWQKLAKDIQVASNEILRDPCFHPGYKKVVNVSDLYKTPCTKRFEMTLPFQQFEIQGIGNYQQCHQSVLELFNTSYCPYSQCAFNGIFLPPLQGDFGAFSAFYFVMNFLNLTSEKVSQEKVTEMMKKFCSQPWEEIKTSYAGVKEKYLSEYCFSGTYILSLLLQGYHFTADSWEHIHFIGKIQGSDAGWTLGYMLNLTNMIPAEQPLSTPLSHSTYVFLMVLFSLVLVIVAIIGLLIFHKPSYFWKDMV
The experiment is described as follows: FACS, CHOK1-cynoCD39 cells. The protocol: CHOK1-hCD39, CHOK1-cCD39, CHOK1-mCD39 and CHOK1-blank cells were maintained in culture medium according to ATCC procedure. Cells were collected and re-suspended in blocking buffer at a density of 3×10⁶ cells/ml. Cells were transferred to 96 well FACS plates at 100 μl/well (3×10⁵ cells/well), the plates were centrifuged and washed twice with FACS buffer (PBS, 1% FBS, 0.05% Tween-20). 4-folds serial dilution of anti-CD39 antibodies were prepared in FACS buffer starting from 30 μg/ml. Reference antibody 9-8B and mouse/human control IgG were used as positive and negative controls, respectively. Cells were re-suspended in 100 μL/well diluted antibodies, and the plates were incubated at 4° C. for 60 min. […] The plates were washed with FACS buffer, and cells were re-suspended in 100 μL/well of PBS. Cells were then analyzed with FACSVerse™ and mean fluorescence intensity were determined. Full binding curves were generated on the CD39 expressing cells by testing a range of antibody concentrations. Apparent affinity was determined for each antibody using Prism software. […]
Reference antibodies T895 and 1394 were tested in parallel as control antibodies. […] Maximum signal (mean fluorescence intensity, MFI) differed between cells for each antibody may result from their different expression level.

The target in experiment [3] is T1, human CD39 (full length, on cells). In words: FACS, SK-MEL-5 cells. The protocol: as §1, §2, §3
Experiment [4] shares this target. In words: FACS, CHOK1-hCD39 cells. The method, boiled down: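 Cells incubated 60 min at 4 °C with anti-CD39 antibodies in 4-fold serial dilution from 30 μg/ml in PBS/1% FBS/0.05% Tween-20; CHOK1-blank cells as negative control. Binding read by flow cytometry as mean fluorescence intensity; apparent affinity fitted from full binding curves.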
For experiment [5] the target is unchanged. In words: cell-based or functional assay.

B1: Antibody T895 (antibody, V domains shown)
VH: EVQLQQSGPELVKPGASVKMSCKASGYTFTDYNMHWVKQSHGRTLEWIGYIVPLNGGSTFNQKFKGRATLTVNTSSRTAYMELRSLTSEDSAAYYCARGGTRFAYWGQGTLVTVSA
VL: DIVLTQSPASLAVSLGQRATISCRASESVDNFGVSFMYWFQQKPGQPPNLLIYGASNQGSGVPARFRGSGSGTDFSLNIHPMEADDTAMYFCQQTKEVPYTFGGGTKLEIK
notes: also called 31895
As to B1, the figures for the EC50 in experiment [1], in experiment [2] and in experiment [3] were 0.36 nM, 4.19 nM and 0.21 nM, respectively.

B2: Antibody 9-8B (antibody, V domains shown)
VH: QIQLVQSGPELKKPGETVKISCKASGYTFTHYGMNWVKQAPGKGLKWMGWINTYTGELTYADDFKGRFAFSLETSASTAYLQINNLKNEDTATYFCARRAYYRYDYVMDYWGQGTSVTVSS
VL: DIVMTQSQKFMSTSVGDRVSVTCKASHNVGTNVAWYQQKPGQSPKALIYSASYRYSGVPGRFTGSGSGTDFTLTISNVQSEDLAEYFCHQYNNYPYTFGGGTKLEIK
As to B2, the EC50 in experiment [4] was found to be 1.7 nM. For the same molecule, in experiment [5], the “SK-MEL-28 cell based ATPase inhibition % at 10 nM” value came out at 21%.

B3: hu23.H5L5 (antibody, V domains shown)
VH: QVQLVQSGAEVKKPGASVKVSCKASGYNLKDTFLHWVRQAPGQGLEWMGRIDPANGNIKYDPKFQGRVTITADTSANTAYMELISLRSEDTAVYYCANSPYYYGSGYRIFDVWGQGTTVTVSS
VL: QIVLTQSPATLSLSPGERATLSCSAFSSVNYMHWYQQKPGQAPRLLIYTTSNLASGIPTRFSGSGSGTSYTLTISSLEPEDFAVYYCQQRSTYPFTFGQGTKLEIK
notes: humanized c23
Take B3: the results for the EC50 in experiment [1], in experiment [2] and in experiment [3] were 0.99 nM, 3.38 nM and 0.69 nM, respectively.

B4: mAb14 (antibody, V domains shown)
VH: EVKLEESGGGLVQPGGSMKLSCVASGFTFSKYWMNWVRQSPEKGLEWVAEIRLKSNKYGTHYAESVKGRFTISRDDSKNNVYLQMNNLRPEDTGIYYCTTQLDLYWFFDVWGAGTTVTVSS
VL: DIVMTQSPAILSVTPGDRVSLSCRASQSISDYLHWYQQKSHESPRLLIKYASQSISGIPSRFSGSGSGSNFTLSINSVEPEDVGVYFCQNGHSLPLTFGAGTKLELR
notes: mouse hybridoma antibody
Take B4: the concentration for a half-maximal effect (EC50) in experiment [4] stood at 2.5 nM. Moreover, in experiment [5], the “SK-MEL-28 cell based ATPase inhibition % at 10 nM” value was 57%.

The term EC50 denotes the midpoint of the concentration-response curve. Low readings indicate an effect from little substance, high ones a need for much substance.
